From the RNAGym collection of RNA variant scans (doi:10.7554/elife.80360)

B1: CPEB3 Ribozyme (parent)
chain: GGGGGCCACAGCAGAAGCGUUCACGUCGCGGCCCCUGUCAGAUUCUGGUGAAUCUGCGAAUUCUGCUGU

Variants of: B1
Experiment: self-cleavage, relative activity (ratio to wild type); higher = more cleavage; co-transcriptional

First: C12U U53C
Second: C12U U36C
The self-cleavage of the first is lower: 0.785 for the first, 0.892 for the second.

First: A13C U62A
Second: A13C U62C
The self-cleavage of the first is lower: 0.348 for the first, 0.475 for the second.

Going from C12G U69C to C12U C24U, the self-cleavage falls from 1.06 to 0.805.

Compared with C12U C24G, C12U C24A is higher in self-cleavage: 0.316 for the first, 0.713 for the second.

Compared with A13G C18U, A13C G31C is lower in self-cleavage: 0.382 for the first, 0.131 for the second.

Compared with A13C C39A, A13C C39G is higher in self-cleavage: 0.372 for the first, 0.538 for the second.

Compared with A13C C57U, A13C C57G is lower in self-cleavage: 0.248 for the first, 0.235 for the second.

First: A13C U69A
Second: A13C U69C
The self-cleavage of the first is lower: 0.915 for the first, 1.06 for the second.

Compared with C12U U38A, C12U C63A is lower in self-cleavage: 0.88 for the first, 0.56 for the second.

Going from C12U C63U to A13C G30A, the self-cleavage falls from 0.898 to 0.497.

Going from A13G G41U to A13G G41C, the self-cleavage falls from 0.583 to 0.547.

First: C12U G58C
Second: A13C U64C
The self-cleavage of the first is higher: 1.01 for the first, 0.614 for the second.

First: C12U U20G
Second: A13C G41A
The self-cleavage of the first is lower: 0.17 for the first, 0.27 for the second.

First: C12U A23C
Second: A13G G28A
The self-cleavage of the first is higher: 0.93 for the first, 0.139 for the second.

Compared with A13G C45G, A13G C29U is lower in self-cleavage: 0.847 for the first, 0.133 for the second.

Compared with A13G G30U, C12U A51C is higher in self-cleavage: 0.241 for the first, 0.977 for the second.

First: C12U G30C
Second: C12U G30U
The self-cleavage of the first is higher: 0.67 for the first, 0.368 for the second.

Compared with A13G C24G, C12U U43A is higher in self-cleavage: 0.368 for the first, 0.868 for the second.

Going from A13G A23G to A13G A23U, the self-cleavage rises from 0.804 to 0.997.

Going from C12U U44A to C12U U44G, the self-cleavage falls from 0.954 to 0.866.

Going from A13G G65C to A13G G65A, the self-cleavage rises from 0.345 to 0.653.

First: A13C U20G
Second: A13C G68U
The self-cleavage of the first is lower: 0.089 for the first, 0.892 for the second.

Going from A13C A60U to C12U G14C, the self-cleavage falls from 0.276 to 0.146.

Going from C12U G14U to C12U G19U, the self-cleavage falls from 0.345 to 0.339.

Going from A13G G17C to A13C A23C, the self-cleavage rises from 0.052 to 0.83.

Going from C12G U67C to C12U A60U, the self-cleavage falls from 0.917 to 0.374.

First: A13C G50A
Second: C12U G50U
The self-cleavage of the first is lower: 0.913 for the first, 0.953 for the second.

First: C12U U55A
Second: A13G G48C
The self-cleavage of the first is lower: 0.756 for the first, 0.971 for the second.

First: C12U U21C
Second: A13G C27G
The self-cleavage of the first is higher: 0.9 for the first, 0.137 for the second.

First: A13G C27A
Second: A13C U43C
The self-cleavage of the first is lower: 0.425 for the first, 0.685 for the second.

First: C12U C33G
Second: C12U C33A
The self-cleavage of the first is lower: 0.656 for the first, 0.924 for the second.

First: C12U U62C
Second: A13G C22A
The self-cleavage of the first is higher: 0.511 for the first, 0.106 for the second.

First: A13G C22U
Second: C12U C35U
The self-cleavage of the first is lower: 0.207 for the first, 0.947 for the second.

Compared with C12U C35A, C12U C35G is higher in self-cleavage: 0.275 for the first, 0.45 for the second.

Going from C12U C32U to C12U C57U, the self-cleavage falls from 0.999 to 0.317.

Going from C12U C54U to C12U C66G, the self-cleavage falls from 0.968 to 0.556.

Compared with C12U C66U, A13C U46A is higher in self-cleavage: 0.798 for the first, 0.901 for the second.

Compared with A13C U46G, A13G C33A is higher in self-cleavage: 0.885 for the first, 0.942 for the second.

Going from A13G C33U to A13C C33G, the self-cleavage falls from 0.946 to 0.231.

First: A13C C33U
Second: A13C C24G
The self-cleavage of the first is higher: 0.774 for the first, 0.0828 for the second.

Going from A13C C32U to A13C C32G, the self-cleavage falls from 0.89 to 0.192.

A13G G47C showed a self-cleavage of 0.997.
